From publication PMC6497953

Molecular target: PilE2, major pilin of Streptococcus sanguinis 2908 type IV pili (mature, untagged) (Streptococcus sanguinis 2908)
Assay: top-down mass spectrometry of purified filaments; purified Tfp from S. sanguinis WT, intact protein mass spectra on an LTQ Orbitrap; ratio of the two major proteoforms

Substance “PilE1, major pilin of Streptococcus sanguinis 2908 type IV pili (mature, untagged) (natural protein)” has a stoichiometry N (PilE1 per PilE2) of 1.33.
